Key:
[1] = molecular target: human GLP-1 receptor (human, UniProt P43220 24-463); test: cell-based or functional assay
[2] = molecular target: human glucagon receptor (human, UniProt P47871 26-477); test: cell-based or functional assay
[3] = molecular target: T1, human GIP receptor (human, UniProt P48546 22-466); test: cell-based or functional assay
T1 sequence (looked up): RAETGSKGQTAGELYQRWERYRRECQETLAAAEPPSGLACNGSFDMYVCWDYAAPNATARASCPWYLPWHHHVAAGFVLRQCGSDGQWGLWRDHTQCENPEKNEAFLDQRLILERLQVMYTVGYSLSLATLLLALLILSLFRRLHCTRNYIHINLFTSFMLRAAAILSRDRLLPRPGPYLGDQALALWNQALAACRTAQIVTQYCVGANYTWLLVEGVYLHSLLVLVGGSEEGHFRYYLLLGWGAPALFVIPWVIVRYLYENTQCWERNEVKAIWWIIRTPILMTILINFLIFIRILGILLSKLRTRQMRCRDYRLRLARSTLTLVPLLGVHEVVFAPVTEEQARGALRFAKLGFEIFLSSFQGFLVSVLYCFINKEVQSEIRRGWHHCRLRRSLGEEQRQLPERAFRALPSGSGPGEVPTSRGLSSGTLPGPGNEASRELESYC

[4] = molecular target: T2, human GIP receptor (human, UniProt P48546 22-466); test: SPA competition vs [125I]-GIP, hGIPR membranes
T2 construct: whole, on cells; also called hGIPR; human glucose-dependent insulinotropic polypeptide receptor
T2 sequence (looked up): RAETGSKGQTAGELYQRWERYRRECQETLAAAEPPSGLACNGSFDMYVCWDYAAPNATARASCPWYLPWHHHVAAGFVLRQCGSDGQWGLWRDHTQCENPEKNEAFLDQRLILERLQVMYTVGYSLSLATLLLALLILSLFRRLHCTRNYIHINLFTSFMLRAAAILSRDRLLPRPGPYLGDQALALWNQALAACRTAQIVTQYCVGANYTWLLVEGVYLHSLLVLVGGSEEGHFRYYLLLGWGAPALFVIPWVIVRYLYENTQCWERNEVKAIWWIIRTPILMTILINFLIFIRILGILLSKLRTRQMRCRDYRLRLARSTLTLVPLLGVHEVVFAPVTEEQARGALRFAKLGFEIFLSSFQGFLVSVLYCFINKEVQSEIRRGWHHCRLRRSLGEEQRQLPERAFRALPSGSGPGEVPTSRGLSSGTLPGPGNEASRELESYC
Procedure: The binding buffer contains 25 mM HEPES, pH 7.4, 2.5 mM CaCl₂, 1 mM MgCl₂, 0.1% (w/v) bacitracin, 0.003% (w/v) TWEEN®-20, and Roche Complete™ Protease Inhibitors without EDTA. […] Plates are sealed and mixed on a plate shaker (setting 6) for 1 minute and read with a PerkinElmer Trilux MicroBeta® scintillation counter after 2.5 to 12 hours of incubation/settling time at room temperature.
(§1) Data are analyzed using four-parameter (curve maximum, curve minimum, IC₅₀, Hill slope) nonlinear regression routines (Genedata Screener, version 12.0.4, Genedata AG, Basal, Switzerland). […] Values for Kᵢ are reported as the geometric mean, with error expressed as the standard error of the mean (SEM) and n is equal to the number of independent replicates (determined in assays performed on different days). Geometric Means are calculated as follows: […]

[5] = molecular target: T3, human GLP-1 receptor (human, UniProt P43220 24-463); test: SPA competition vs [125I]-GLP-1, hGLP-1R membranes
T3 construct: whole, on cells; also called hGLP-1R; human glucagon-like peptide-1 receptor
Procedure: The binding buffer contains 25 mM HEPES, pH 7.4, 2.5 mM CaCl₂, 1 mM MgCl₂, 0.1% (w/v) bacitracin, 0.003% (w/v) TWEEN®-20, and Roche Complete™ Protease Inhibitors without EDTA.
as §1

Binder | EC50, cAMP [1] | EC50, cAMP [2] | EC50, cAMP [3] | Emax, cAMP [3] | Emax, cAMP [1] | Ki [4] | Ki [5]
YXEGTXTSDXSIXLDXKAQXEFIXXLIEGGPSSGAPPPSK (Aib2, αMeF(2F)6, 4Pal10, αMeL13, Orn16, Aib20, D-Glu24, αMeY25, K17 and K40: K(AEEA2-(γ-Glu)-CO-(CH2)10-CH3), C-terminal NH2) [Example 141] | 0.0693 nM | > 9950 nM | 0.00723 nM | 98.8% |  |  | 
YXEGTXTSDXSIXLDXKAQXEFIXXLIKGGPSSGAPPPS (Aib2, αMeF(2F)6, 4Pal10, αMeL13, Orn16, Aib20, D-Glu24, αMeY25, K17 and K28: K(AEEA2-(γ-Glu)-CO-(CH2)10-CH3), C-terminal NH2) [Example 139] | 0.141 nM | > 9950 nM | 0.0108 nM |  | 111% |  | 
YXEGTXTSDXSIXLDXKAQXEFIXXLIEGGKSSGAPPPS (Aib2, αMeF(2F)6, 4TAA10, αMeL13, Orn16, Aib20, D-Glu24, αMeY25, K17 and K31: K(AEEA2-(γ-Glu)-CO-(CH2)12-CO2H), C-terminal NH2) [Example 144] | 3.47 nM | > 9950 nM | 0.0193 nM | 90% |  |  | 
YXEGTXTSDXSIXLDXKAQXXFIXXLIEGGKSSGAPPPS (Aib2, αMeF(2F)6, 4Pal10, αMeL13, Orn16, Aib20, Orn21, D-Glu24, αMeY25, K17 and K31: K(AEEA2-(γ-Glu)-CO-(CH2)12-CO2H), C-terminal NH2) [Example 150] | 0.455 nM | > 9950 nM | 0.0268 nM |  |  |  | 
YXEGTXTSDXSIXLDXKAQXEFIXXLIEGGKSSGAPPPX (Aib2, αMeF(2F)6, 4Pal10, αMeL13, Orn16, Aib20, D-Glu24, αMeY25, Orn39, K17 and K31: K(AEEA2-(γ-Glu)-CO-(CH2)12-CO2H), C-terminal NH2) [Example 154] | 1.69 nM | > 9950 nM | 0.0299 nM | 96.6% |  |  | 
YXEGTXTSDXSIXLDXKAQXEXIXXLIEGGKSSGAPPPS (Aib2, αMeF(2F)6, 4Pal10, αMeL13, Orn16, Aib20, ChA22, D-Glu24, αMeY25, K17 and K31: K(AEEA2-(γ-Glu)-CO-(CH2)12-CO2H), C-terminal NH2) [Example 148] | 1.77 nM | > 9950 nM | 0.0209 nM |  | 94.5% |  | 
YXEGTXTSDXSIXLDXKAQXEFIXXLIEGKPSSGAPPPS (Aib2, αMeF(2F)6, 4Pal10, αMeL13, Orn16, Aib20, D-Glu24, αMeY25, K17 and K30: K(AEEA2-(γ-Glu)-CO-(CH2)12-CO2H), C-terminal NH2) [Example 18] | 5.06 nM | > 9950 nM | 0.0226 nM | 97.1% |  |  | 
YXEGTXTSDXSIXLDXKAQXEFIXXLIEGGKSSGAPPPS (Aib2, αMeF6, 4Pal10, αMeL13, Orn16, K17(Z1), Aib20, D-Glu24, αMeF25, K31(Z1), C-term NH2; Z1=AEEA2-(γ-Glu)-CO-(CH2)12-CO2H) |  |  |  |  |  | 0.0621 nM | 3.67 nM
YXEGTXTSDXSIXLDXKAQXEFIKXLIEGGPSSGAPPPS (Aib2, αMeF(2F)6, 4Pal10, αMeL13, Orn16, Aib20, αMeY25, K17 and K24: K(AEEA2-(γ-Glu)-CO-(CH2)12-CO2H), C-terminal NH2) [Example 16] | 0.245 nM | > 9950 nM | 0.0113 nM |  |  |  | 
YXEGTXTSDXSIXLDXKAQXEFIXXLIEGGKSSGAPPPS (Aib2, αMeF(2F)6, 2TA10, αMeL13, Orn16, Aib20, D-Glu24, αMeY25, K17 and K31: K(AEEA2-(γ-Glu)-CO-(CH2)12-CO2H), C-terminal NH2) [Example 145] | 0.555 nM | > 9950 nM | 0.0286 nM | 74.8% |  |  | 
YXEGTXTSDXSIXLDXKAQXEFIXXLIKGGPSSGAPPPS (Aib2, αMeF(2F)6, 4Pal10, αMeL13, Orn16, Aib20, D-Glu24, αMeY25, K17 and K28: K(AEEA2-(γ-Glu)-CO-(CH2)12-CO2H), C-terminal NH2) [Example 17] | 1.57 nM | > 9950 nM | 0.0129 nM |  |  |  | 
YXEGTXTSDXSIXLDXKAQXEFIXXLIEGGKSSGAPPPS (Aib2, αMeF(2F)6, 4Pal10, αMeL13, Orn16, Aib20, D-Glu24, αMeY25, K17 and K31: K(AEEA-(γ-Glu)-CO-(CH2)10-CH3), C-terminal NH2) [Example 14] | 0.0884 nM | > 9950 nM | 0.00802 nM |  |  |  | 
YXEGTXTSDXSIXLDXKAQXEFIXXLIEGGKSSGAPPPS (Aib2, αMeF(2F)6, 4Pal10, αMeL13, Orn16, K17(Z1), Aib20, D-Glu24, αMeY25, K31(Z1), C-term NH2; Z1=AEEA2-(γ-Glu)-CO-(CH2)12-CO2H) |  |  |  |  |  | 0.088 nM | 2.33 nM
YXEGTXTSDXSIXLDXKAQXEFIXXLIEGGKSSGAPPPS (Aib2, αMeF(2F)6, 3TA10, αMeL13, Orn16, Aib20, D-Glu24, αMeY25, K17 and K31: K(AEEA2-(γ-Glu)-CO-(CH2)12-CO2H), C-terminal NH2) [Example 146] | 0.688 nM | > 9950 nM | 0.0198 nM | 76.5% |  |  | 
YXEGTXTSDXSIXLDXKAQXKFIXXLIEGGPSSGAPPPS (Aib2, αMeF(2F)6, 4Pal10, αMeL13, Orn16, Aib20, D-Glu24, αMeY25, K17 and K21: K(AEEA2-(γ-Glu)-CO-(CH2)12-CO2H), C-terminal NH2) [Example 15] | 0.995 nM | > 9950 nM | 0.0133 nM |  |  |  | 
YXEGTXTSDXSIXLDXKAQXEFIXXLIEGGKSSGAPPPS (Aib2, αMeF(2F)6, 4Pal10, αMeL13, Orn16, K17(Z1), Aib20, D-Glu24, αMeY25, K31(Z1), C-term NH2; Z1=AEEA2-(εK)-(γ-Glu)-CO-(CH2)12-CO2H) |  |  |  |  |  | 0.131 nM | 2.81 nM
YXEGTXTSDXSIXLDXKAQXEFIXXLIEGGKSSGAPPPS (Aib2, αMeF(2F)6, 4Pal10, αMeL13, Orn16, K17(Z1), Aib20, D-Glu24, αMeY25, K31(Z1), C-term NH2; Z1=(γ-Glu)-AEEA2-CO-(CH2)12-CO2H) |  |  |  |  |  | 0.108 nM | 2.06 nM

Reference: patent US20230265151A1, “GIP/GLP1 CO-AGONIST COMPOUNDS” (priority 2020, published 2023)
